Data from article PMC7357845.

Biological target: rabbit skeletal muscle G-actin (rabbit) (UniProt P68135)
Assay: SPR

Kd [nM]	Substance
2	His-tagged ZASP-S WT (N21 His-tag) (from UniProt O75112-6 1-283) (natural protein)
62	untagged ZASP-S WT (from UniProt O75112-6 1-283) (natural protein)
